Results from PMC10749193 (Frontiers in Immunology, 2023).

Target: SARS-CoV-2 S2 subunit ectodomain (S2-ECD, 686–1213 aa) (SARS-CoV-2 Wuhan, UniProt P0DTC2)
Assay: ELISA
Conditions: both partners purified

B1: anti-S2 monoclonal antibody 4A5 (antibody, V domains shown)
VH: QVKLEQSGPGILQPSQTLSLTCSFSGFSLSTSGMGVSWIRQSSGKGLEWLTHIYWDDDKRYNPSLKSRLTISKDTSRNQVFLKITSVDTADTATYYCARRRMITGLYYAMDYWGQGTSVTVSS
VL: DIVMTQSTLSLPVSFGDQVSISCRSSQSLANSYGITYLSWYLHKPGQSPQLLIYGISNRFSGVPDRFSGSGSGTDFTLKISTIKPEDLGMYYCLQGTHQPWTFGGGTKLEIK
Question: Does B1 bind?
Answer: Result: binds
